Measured values as given in patent US20110319338A1, “PEPTIDES THAT BIND EUKARYOTIC TRANSLATION INITIATION FACTOR 4E” (The Board of Regents of the University of Texas System, priority 2008, published 2011).
Square brackets hold non-standard residues; d marks the D form. Ends that are not written are not given here.

Tests used:
[1] = target: T1, eIF4E in SKOV3+GnRH-RI cells (Homo sapiens, UniProt P06730); assay: Pull-down of peptide from lysates of peptide-treated cells, Western blot with eIF4E antibody; format: cell-based; settings: 10 micromoles per liter, 24 hours
T1 construct: endogenous in cells; host or cells: SKOV3 cells stably transfected with human GnRH-RI (eIF4E itself is not transfected)
Procedure: FIGS. 8A-8D. Effect of [DLys6] GnRH-4EBP1 peptide in SKOV3 cells stably expressing GnRH-RI. (FIG. 8A) Western blot analysis of GnRH-RI in parental SKOV3 cells and SKOV3 cells transfected with GnRH-RI. In (FIG. 8B), SKOV3+GnRH-RI cells were treated with biotinylated peptides at a final concentration of 10 micromoles per liter or incubated without peptide. At 24 hours after treatment, lysates were prepared from cells. Peptide was pulled-down using streptavidin-agarose. Precipitates and supernatants were analyzed by Western blot using eIF4E antibody. (FIG. 8C) parental SKOV3, SKOV3+GnRH-RI and ES-2 cells were treated with the indicated peptides (10 micromoles per liter) or incubated without peptide. At 24 hours after treatment, lysates were prepared from cells. Immunoprecipitation was performed using eIF4E antibody, and Western blot of precipitates was performed using eIF4G antibody. Western blot of whole cell lysates of treated cells was performed using antibodies to eIF4G, eIF4E and actin. (FIG. 8D) TUNEL-staining of parental SKOV3 and SKOV3+GnRH-RI cells at 3 days following treatment with peptide at a final concentration of 30 micromoles per liter.
Immunoprecipitation (IP) and Western blotting. Biotinylated peptides were incubated with 250 micrograms of cell lysate at a final concentration of 3 micromoles per liter for 6 hours at 4° C. […]

[2] = system: GnRH-RI-positive and -negative lines; assay: Cell viability assay across cell lines; format: cell-based; settings: 3 days
Procedure: FIGS. 3A-3H. Uptake, binding and inhibitory effects of [DLys6]GnRH-4EBP fusion peptides. (FIG. 3A) Sequences of [DLys6]GnRH, and wild-type and mutant 4EBP1 peptides fused to the agonist. (FIG. 3B) Western blot of GnRH-RI levels in OVCAR-3, ES-2, MDA-MB-231, BJ, HUVEC and SKOV3 cells. (FIG. 3C) Detection of biotinylated peptides in OVCAR-3 and SKOV3 by Texas Red-conjugated streptavidin at 16 hours after peptide addition (3 micromoles per liter). In (FIGS. 3D and 3E), biotinylated peptides were incubated with OVCAR-3 cell lysate as described in FIG. 1. In (FIG. 3D), peptide was pulled down using streptavidin-agarose. Precipitates (P) and supernatants (S) were analyzed by Western blot using eIF4E antibody. In (FIG. 3E), immunoprecipitation was performed using eIF4E antibody, and Western blot performed using eIF4G antibody. […]
FIGS. 14A-14B. […] Viability of cells at 3 days after peptide addition was measured by crystal violet staining and is expressed relative to viability of cells incubated with no peptide. […] Staining of cells with FITC-Annexin V and PI was analyzed by flow cytometry.
Cell viability and TUNEL assays. […] Cells were stained with 0.5% crystal violet solution, and absorbance measured at 570 nm. […] Cells were fixed in 70% ethanol and the extent of apoptosis was determined by flow cytometric analysis of TUNEL-staining using the APO-BRDU kit (Phoenix Flow Systems, San Diego Calif.). […]

eIF4E = target: T2, eIF4E (Homo sapiens, UniProt P06730); assay: Streptavidin-agarose pull-down of biotinylated peptide from OVCAR-3 cell lysate, Western blot with eIF4E antibody; format: binding; settings: biotinylated peptide 3 micromoles per liter, 250 micrograms OVCAR-3 cell lysate
T2 construct: endogenous in cells; host or cells: OVCAR-3 cell lysate
Procedure: FIGS. 1A-1G. 4EBP peptides bind eIF4E and inhibit binding of eIF4E to eIF4G. (FIG. 1A) Sequences of peptides comprising residues 49 to 68 of 4EBP1 and 4EBP2. (FIG. 1B) Biotinylated peptides (3 micromoles per liter) were incubated with 250 micrograms of OVCAR-3 cell lysate. Peptides were pulled-down using streptavidin-agarose. Precipitates (P) and supernatants (S) were analyzed by Western blot using eIF4E antibody. In (FIG. 1C), immunoprecipitation was performed using eIF4E antibody, and Western blot performed using eIF4G antibody. (FIG. 1D) Sequences of wild-type and mutant 4EBP peptides fused to TAT (mutant residues are highlighted). (FIG. 1E) OVCAR-3 cells were treated with biotinylated peptides (3 micromoles per liter, final concentration) for 16 hours. Internalized peptides were detected by staining fixed cells with Texas Red-conjugated streptavidin. Nuclei were visualized by staining with 4′,6-Diamidino-2-Phenylindole (DAPI). (FIGS. 1F and 1G) OVCAR-3 cell lysates were incubated with peptides as described for FIG. 1B. In (FIG. 1F), immunoprecipitation was performed using streptavidin-agarose and Western blot performed using eIF4E antibody. In (FIG. 1G), immunoprecipitation was performed using eIF4E antibody, and Western blot performed using eIF4G antibody.
FIGS. 3A-3H. Uptake, binding and inhibitory effects of [DLys6]GnRH-4EBP fusion peptides. (FIG. 3A) Sequences of [DLys6]GnRH, and wild-type and mutant 4EBP1 peptides fused to the agonist. (FIG. 3B) Western blot of GnRH-RI levels in OVCAR-3, ES-2, MDA-MB-231, BJ, HUVEC and SKOV3 cells. (FIG. 3C) Detection of biotinylated peptides in OVCAR-3 and SKOV3 by Texas Red-conjugated streptavidin at 16 hours after peptide addition (3 micromoles per liter). In (FIGS. 3D and 3E), biotinylated peptides were incubated with OVCAR-3 cell lysate as described in FIG. 1. In (FIG. 3D), peptide was pulled down using streptavidin-agarose. Precipitates (P) and supernatants (S) were analyzed by Western blot using eIF4E antibody. In (FIG. 3E), immunoprecipitation was performed using eIF4E antibody, and Western blot performed using eIF4G antibody. (FIG. 3F) R-Luc and F-Luc activities were assayed in ES-2-DualLuc cells at 6 hours after addition of the indicated concentrations of peptides, and are expressed relative to the respective luciferase activities in cells incubated without peptide. Shown are results of triplicate assays performed independently two times, and the statistical significance of differences in relative R-Luc and F-Luc activities in cells treated with peptide at a concentration of 10 micromoles per liter (FIG. 3G) Cells of GnRH-RI-positive and -negative lines were treated with the indicated concentrations of peptides. […]

T2 sequence (P06730 whole entry): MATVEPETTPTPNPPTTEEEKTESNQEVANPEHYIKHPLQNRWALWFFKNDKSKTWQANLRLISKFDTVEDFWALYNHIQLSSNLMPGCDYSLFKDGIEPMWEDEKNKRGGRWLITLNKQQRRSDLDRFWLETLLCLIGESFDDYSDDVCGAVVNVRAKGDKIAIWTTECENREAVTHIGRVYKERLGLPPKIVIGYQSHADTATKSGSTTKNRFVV
T1 sequence (P06730 whole entry): as above

[DLys6]GnRH: GnRH agonist with a D-amino acid substitution at position 6; GnRH-RI-targeting moiety (QHWSY[dK]LRPG; not fully specified (residue 1, C-terminus); ends and bridges not checked)
binding of peptide to eIF4E in treated cells [1]: neither mutant peptide nor [DLys6]GnRH alone bound eIF4E
cell growth across lines [2]: did not significantly inhibit cell growth
binding of peptide to eIF4E (eIF4E): did not bind
